From patent US20240091260A1

Target: PRAME … (ALY) peptide in complex with HLA-A*0201 (HLA-A2) (human)
Test: cell-based or functional assay

For “PRAME mTCRCAR (chimeric antigen receptor with an scFv from Pr20, IgG4 hinge, 4-1BB costimulatory and CD3zeta signaling domains), on human T cells”, which cell death of neuroblastoma cells (SK-N-SH) with CD8+ CAR T cells at 24 hours is on record?
The cell death of neuroblastoma cells (SK-N-SH) with CD8+ CAR T cells at 24 hours was 98%.
